Laboratory results: the supplement of paper PMC9233669
Variants at the floor of the assay were thinned out.

What was measured:
[1] = system: biotinyl-Ile-oxazolone; assay: self-aminoacylation, catalytic enhancement (BIO) (fold over background); higher = more active; k-Seq, kA / k0A0; sequences stand for … in GGGAAUGGAUCCACAUCUACGAAUUC…UUCACUGCAGACUUGACGAAGCUG
Summary of the method: (§1)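 Each biotinyl-aminoacyl-oxazolone, at 2–1250 μM, was incubated with mutagenized RNA pools (0.43 μM) carrying a 21-nt variable region. The 50 μL reactions contained HEPES/NaCl/KCl/MgCl2/CaCl2 buffer with 5% acetonitrile at pH 6.9–7.0 and ran for 90 minutes at room temperature. After streptavidin capture, RNA was measured by qPCR in triplicate and by Illumina sequencing, and catalytic enhancement was calculated as median kA over the uncatalyzed rate from a pseudo-first-order fit of per-sequence fraction reacted.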

[2] = system: biotinyl-Met-oxazolone; assay: self-aminoacylation, catalytic enhancement (BMO) (fold over background); higher = more active; k-Seq, kA / k0A0; sequences stand for … in GGGAAUGGAUCCACAUCUACGAAUUC…UUCACUGCAGACUUGACGAAGCUG
Summary of the method: as §1

[3] = system: biotinyl-Leu-oxazolone; assay: self-aminoacylation, catalytic enhancement (BLO) (fold over background); higher = more active; k-Seq, kA / k0A0; sequences stand for … in GGGAAUGGAUCCACAUCUACGAAUUC…UUCACUGCAGACUUGACGAAGCUG
Summary of the method: as §1

[4] = system: biotinyl-Phe-oxazolone; assay: self-aminoacylation, catalytic enhancement (BFO) (fold over background); higher = more active; k-Seq, kA / k0A0; sequences stand for … in GGGAAUGGAUCCACAUCUACGAAUUC…UUCACUGCAGACUUGACGAAGCUG
Summary of the method: as §1

[5] = system: biotinyl-Trp-oxazolone; assay: self-aminoacylation, catalytic enhancement (BWO) (fold over background); higher = more active; k-Seq, kA / k0A0; sequences stand for … in GGGAAUGGAUCCACAUCUACGAAUUC…UUCACUGCAGACUUGACGAAGCUG
Summary of the method: as §1

[6] = system: biotinyl-Val-oxazolone; assay: self-aminoacylation, catalytic enhancement (BVO) (fold over background); higher = more active; k-Seq, kA / k0A0; sequences stand for … in GGGAAUGGAUCCACAUCUACGAAUUC…UUCACUGCAGACUUGACGAAGCUG
Summary of the method: as §1

Sequence | self-aminoacylation [1] | self-aminoacylation [2] | self-aminoacylation [3] | self-aminoacylation [4] | self-aminoacylation [5] | self-aminoacylation [6]
ACGUUUGCUGAUAGUCGCAAG [Fam3.1 aminoacylation ribozyme variant] | 1.52 | 1.12 | 1.57 | 4.7 | 1.69 | 1.35
ACGUUUUCUAAUAGUCGCAAG [Fam3.1 aminoacylation ribozyme variant] | 1.75 | 1.59 | 1.67 | 2.79 | 1.55 | 1.53
ACUACACUGGUCAUCGAGUGA [Fam2.1 aminoacylation ribozyme variant] | 3.3 | 4.45 | 4.81 | 13.7 | 5.78 | 3
ACUACCAUGGUCAUCGAGUGA [Fam2.1 aminoacylation ribozyme variant] | 4.61 | 6.31 | 7.97 | 34.8 | 9.5 | 4.53
ACUACCCCGGUCAUCGAGUGA [Fam2.1 aminoacylation ribozyme variant] | 3.29 | 5.95 | 5.9 | 30.8 | 5.9 | 2.87
ACUACCCUGGCCAUCGAGUGA [Fam2.1 aminoacylation ribozyme variant] | 3.53 | 4.33 | 6.69 | 27.3 | 7.18 | 3.77
ACUACCCUGGUAAUCGAGUGA [Fam2.1 aminoacylation ribozyme variant] | 3.32 | 7.36 | 7.43 | 43.4 | 9.29 | 3.16
ACUACCCUGGUCAUAGAGUGA [Fam2.1 aminoacylation ribozyme variant] | 3.26 | 6.89 | 7.11 | 38.1 | 7.77 | 3.19
ACUACCCUGGUCAUCGAGUGC [Fam2.1 aminoacylation ribozyme variant] | 2.18 | 5.55 | 5.6 | 10.1 | 4.17 | 2.44
ACUACCCUGGUCAUCGAGUGG [Fam2.1 aminoacylation ribozyme variant] | 7 | 20.8 | 22.5 | 110 | 20.2 | 8.27
ACUACCCUGGUCAUCGAUUGA [Fam2.1 aminoacylation ribozyme variant] | 1.01 | 1.05 | 1.16 | 1.59 | 1.16 | 1.02
ACUACCCUGGUUAUCGAGUGA [Fam2.1 aminoacylation ribozyme variant] | 3.67 | 7.03 | 8.45 | 33.1 | 7.91 | 4.43
ACUAUCCUGGUCAUCGAGUGA [Fam2.1 aminoacylation ribozyme variant] | 3.7 | 6.19 | 6.46 | 18.4 | 8.06 | 3.62
ACUCAACUAGGUCAUCGGGUG [Fam2.2 aminoacylation ribozyme variant] | 5.56 | 5.62 | 6.97 | 48 | 5.38 | 4.88
ACUCACCUAGCUCAUCGGGUG [Fam2.2 aminoacylation ribozyme variant] | 2.02 | 2.47 | 2.17 | 0.904 | 2.44 | 1.92
ACUCACCUAGGUCACCGGGUG [Fam2.2 aminoacylation ribozyme variant] | 4.71 | 3.64 | 7.47 | 34.2 | 7.92 | 5.05
ACUCACCUAGGUCAUCGGCUG [Fam2.2 aminoacylation ribozyme variant] | 2.1 | 2 | 1.31 | 7.96 | 2.35 | 3.01
ACUCACCUAGGUCAUCGGGAG [Fam2.2 aminoacylation ribozyme variant] | 2.33 | 2.48 | 2.28 | 1.04 | 2.46 | 2.08
ACUCACCUAGGUCAUCGGGCG [Fam2.2 aminoacylation ribozyme variant] | 3.12 | 2.66 | 3.85 | 2.07 | 2.63 | 2.63
ACUCACCUAGGUCAUCGGGGG [Fam2.2 aminoacylation ribozyme variant] | 3.75 | 3.42 | 3.57 | 22.1 | 4.06 | 3.19
ACUCACCUAGGUCAUCGGGUG [Fam2.2 aminoacylation ribozyme variant] | 9.45 | 15.9 | 19.8 | 105 | 13.9 | 9.32
ACUCACGUAGGUCAUCGGGUG [Fam2.2 aminoacylation ribozyme variant] | 2.89 | 3.04 | 4.27 | 32.9 | 3.88 | 3.73

Sequence | self-aminoacylation [1] | self-aminoacylation [2] | self-aminoacylation [3] | self-aminoacylation [4] | self-aminoacylation [5] | self-aminoacylation [6]
ACUCACUUAGGUCAUCGGGUG [Fam2.2 aminoacylation ribozyme variant] | 4.73 | 5.78 | 7.98 | 49.6 | 7.25 | 5.12
ACUCAGCUAGGUCAUCGGGUG [Fam2.2 aminoacylation ribozyme variant] | 4.07 | 4.79 | 4.79 | 30.7 | 7.25 | 4.84
ACUCCCCUGGUCAUCGAGUGA [Fam2.1 aminoacylation ribozyme variant] | 3.18 | 6.39 | 6.71 | 42.7 | 6.48 | 3.69
AGAACCCUGGUCAUCGAGUGA [Fam2.1 aminoacylation ribozyme variant] | 19.6 | 57.5 | 58.5 | 354 | 56.9 | 21.2
AGGUUGGCUAAUAGUCGCAAG [Fam3.1 aminoacylation ribozyme variant] | 1.74 | 1.97 | 1.88 | 2.19 | 2.29 | 1.7
AGGUUUGCGAAUAGUCGCAAG [Fam3.1 aminoacylation ribozyme variant] | 1.63 | 2.24 | 1.82 | 7.75 | 3.06 | 1.75
AGGUUUGCUAAUAGUCGGAAG [Fam3.1 aminoacylation ribozyme variant] | 1.22 | 1.24 | 1.02 | 12.2 | 3.12 | 0.944
AGGUUUGCUAAUAGUCUCAAG [Fam3.1 aminoacylation ribozyme variant] | 1.17 | 1.36 | 1.22 | 9.24 | 2.89 | 1.22
AGGUUUGCUAAUAGUUGCAAG [Fam3.1 aminoacylation ribozyme variant] | 1.17 | 0.863 | 0.994 | 1.44 | 0.893 | 0.924
AGGUUUGCUAAUCGUCGCAAG [Fam3.1 aminoacylation ribozyme variant] | 1.42 | 1.44 | 1.45 | 2.43 | 1.98 | 1.34
AGUACCCUGGUAAUCGAGUGA [Fam2.1 aminoacylation ribozyme variant] | 3.21 | 7.78 | 8.28 | 47.6 | 8.92 | 3.23
AGUACCCUGGUCAUCGAGAGA [Fam2.1 aminoacylation ribozyme variant] | 0.994 | 0.888 | 1.14 | 1.36 | 0.788 | 0.901
AGUACCCUGGUCAUCGAGUGA [Fam2.1 aminoacylation ribozyme variant] | 6.11 | 13.2 | 12.8 | 28.7 | 13.6 | 6.48
AGUACCCUGGUCGUCGAGUGA [Fam2.1 aminoacylation ribozyme variant] | 1.37 | 1.05 | 1.53 | 8.09 | 1.54 | 1.24
AGUACCCUGGUUAUCGAGUGA [Fam2.1 aminoacylation ribozyme variant] | 3.63 | 7.87 | 9.55 | 37.4 | 9.24 | 4.26
AGUCACCCAGGUCAUCGGGUG [Fam2.2 aminoacylation ribozyme variant] | 5.28 | 4.56 | 4.72 | 57.4 | 4.54 | 4.29
AGUCACCGAGGUCAUCGGGUG [Fam2.2 aminoacylation ribozyme variant] | 4.06 | 5.09 | 4.81 | 32.8 | 5.81 | 4.46
AGUCACCUAAGUCAUCGGGUG [Fam2.2 aminoacylation ribozyme variant] | 4.94 | 6.86 | 6.89 | 69.3 | 6.74 | 4.5
AGUCACCUAGAUCAUCGGGUG [Fam2.2 aminoacylation ribozyme variant] | 3.96 | 3.33 | 3.5 | 17.5 | 4.5 | 3.06
AGUCACCUAGGUCAACGGGUG [Fam2.2 aminoacylation ribozyme variant] | 2.57 | 2.25 | 3.22 | 9.17 | 3.02 | 2.08
AGUCACCUAGGUCAUCGGGAG [Fam2.2 aminoacylation ribozyme variant] | 1.65 | 1.93 | 1.74 | 1.38 | 2.56 | 1.76
